Data from US20240342298A1, “METHODS OF TREATING TUMORS BY USING MOLECULAR CONSTRUCT” (Immunwork Inc., priority 2023, published 2024).

Assays:
U266-CD38- cells = experiment: alamarBlue cell viability assay, U266-CD38- cells; format: cell-based; conditions: 5 days, FIG. 12F
Experimental: (§1) Briefly, H929, U266-CD38^−, MM.1S, and Daudi cells were seeded at 5,000 cells/well in 96-well plates and co-cultured with fresh medium containing different test articles with the indicated concentrations at 37° C. for 5 hours, 1 day, 3 days, or 5 days. The viabilities of the cells were determined by alamarBlue™ cell viability reagent. About 10 μl alamarBlue™ cell viability reagent was added to the cells with a final concentration of 10% v/v, followed by incubating at 37° C. for 1.5 hours. The fluorescence was measured on a microplate reader in arbitrary fluorescent units following excitation at 560 nm and emission at 590 nm.
(§2) H929 cells were incubated for 5 hours, 1 day, 3 days, or 5 days (FIGS. 12A-12D), and MM.1S, U266-CD38-, and Daudi cells were incubated for 5 days (FIGS. 12E-12G). Then, cell viability was determined.

H929 cells = experiment: alamarBlue cell viability assay, H929 cells; format: cell-based, human; conditions: even at doses >20 μM
Experimental: as §1, §2

human CD38 = molecular target: T1, human CD38 (Homo sapiens, UniProt P28907); experiment: cell-based ELISA binding to human CD38-overexpressing 293T cells
T1 construct: The cDNA of full-length human CD38 was cloned into pCDH-CMV-MCS-Ef1α-Puro expression vector; expressed in transfected cells; host or cells: HEK293T (lentiviral transduction with pCDH-CMV-CD38, puromycin selection)
Experimental: The cDNA of full-length human CD38 was cloned into pCDH-CMV-MCS-Ef1α-Puro expression vector to generate lentiviral-based CD38-expressing plasmid, pCDH-CMV-CD38. Lentivirus was packaged by co-transfecting pCDH-CMV-CD38, pCMV-VSV-G, and pCMV8R8.91 into HEK293T cells. Human CD38-overexpressing HEK293T cells were transduced with lentivirus infection and cultured with 1 μg/mL puromycin three days post-infection.

MM.1S cells = experiment: alamarBlue cell viability assay, MM.1S cells; format: cell-based, human; conditions: even at doses >20 μM
Experimental: as §1, §2

EC50 (human CD38): 0.84 nM
B1: 2-chain (anti-CD38 scFv)-hIgG1.Fc-(Gly)3-BM fusion protein: dimer of (anti-CD38 scFv)-hIgG1.Fc-(Gly)3-BM, SEQ ID NO: 12; scFv VL and VH derived from daratumumab (protein)
chain: EIVLTQSPATLSLSPGERATLSCRASQSVSSYLAWYQQKPGQAPRLLIYDASNRATGIPARFSGSGSGTDFTLTISSLEPEDFAVYYCQQRSNWPPTFGQGTKVEIKGSTSGSGKPGSGEGSTKGEVQLLESGGGLVQPGGSLRLSCAVSGFTFNSFAMSWVRQAPGKGLEWVSAISGSGGGTYYADSVKGRFTISRDNSKNTLYLQMNSLRAEDTAVYFCAKDKILWFGEPVFDYWGQGTLVTVSSGGGASDKTHTCPPCPAPELLGGPSVFLFPPKPKDTLMISRTPEVTCVVVDVSHEDPEVKFNWYVDGVEVHNAKTKPREEQYNSTYRVVSVLTVLHQDWLNGKDYKCKVSNKALPAPIEKTISKAKGQPREPQVYTLPPSRDELTRNQVSLTCLVKGFYPSDIAVEWESNGQPENNYKTTPPVLDSDGSFFLYSKLTVDKSRWQQGNVFSCSVMHEALHNHYTQKSLSLSPGGGGACPGHA
modifications: homodimer
notes: scFv VL and VH derived from daratumumab
killing effect (U266-CD38- cells): did not possess any killing effect
effect of cell death (H929 cells): no effect of cell death
effect of cell death (MM.1S cells): no effect of cell death
